# Test results: publication PMC10467048
# What was measured:
# [1] = biological target: CTB−JEV EDIII (not stated | Japanese encephalitis virus); assay: PAGE after incubation at different temperatures
# [2] = biological target: CTB−JEV EDIII (not stated | Japanese encephalitis virus); assay: PAGE under non-reduced conditions (without boiling, without DTT)
# [3] = biological target: LTB−JEV EDIII (TEV cut) (not stated | Japanese encephalitis virus); assay: PAGE after incubation at different temperatures
# [4] = biological target: LTB−JEV EDIII (TEV cut) (not stated | Japanese encephalitis virus); assay: SEC
# [5] = biological target: LTB−JEV EDIII (TEV cut) (not stated | Japanese encephalitis virus); assay: PAGE under non-reduced conditions (without boiling, without DTT)
Substance,stoichiometry N [1],stoichiometry N [2],stoichiometry N [3],stoichiometry N [4],stoichiometry N [5]
CTB−JEV EDIII,5,5,,,
LTB−JEV EDIII (TEV cut),,,5,5,5
